Paper PMC6379675, “Structural insights into chromosome attachment to the nuclear envelope by an inner nuclear membrane protein Bqt4 in fission yeast” (Nucleic Acids Research, 2018)

B1: Rap1_(479–527) [S. pombe] / Bqt4_(2–140), N-terminal domain of Bqt4 [S. pombe] (parent complex)
chain 1: EIPLLSDYSDSENISEKSSDDEEAFEKQVTSSYSSPIKVKSQGKSSKGS
chain 2: TENEKSRSLPAERNPLYKDDTLDHTPLIPKCRAQVIEFPDGPATFVRLKCTNPESKVPHFLMRMAKDSSISATSMFRSAFPKATQEEEDLEMRWIRDNLNPIEDKRVAGLWVPPADALALAKDYSMTPFINALLEASST
B2: Lem2_(261–279) [S. pombe] / Bqt4_(2–140), N-terminal domain of Bqt4 [S. pombe] (parent complex)
chain 1: SAEEDDELFQNYVLQQTRK
chain 2: B1 chain 2
B3: Sad1 (residues 88–101) [S. pombe] / Bqt4_(2–140), N-terminal domain of Bqt4 [S. pombe] (parent complex)
chain 1: SDNEEFENVVKNGH
chain 2: B1 chain 2

Variants of: B1
Assay: ITC; parent: 1.14e+04 nM

Row | Kd | Variant
1 | 14.4 µM | chain 2 D89R
2 | 12.3 µM | chain 2 R32A

Variants of: B1
Assay: ITC; parent: 1.14e+04 nM
Remark: another data set of the same source

Row | Kd | Variant
3 | 106 µM | chain 1 F25A
4 | 138 µM | chain 1 V29A
5 | 862 µM | chain 1 D21A, chain 1 E22A

Variants of: B1
Assay: ITC; parent: 1.14e+04 nM
Remark: another data set of the same source

Row | Kd | Variant
6 | 0.9 µM | chain 1 S18E, chain 1 S19E
7 | 7.3 µM | chain 1 S34A, chain 1 S35A
8 | 7.9 µM | chain 1 S35A
9 | 57.8 µM | chain 1 S35E
10 | 8 µM | chain 1 S18A, chain 1 S19A
11 | 9.5 µM | chain 1 S19A
12 | 2.6 µM | chain 1 S19E
13 | 115 µM | chain 1 S34E, chain 1 S35E
14 | 10.6 µM | chain 1 S18A
15 | 2.4 µM | chain 1 S18E
16 | 27.2 µM | chain 1 S34E
17 | 7.1 µM | chain 1 S34A

Variants of: B1
Assay: ITC; parent: 1.14e+04 nM
Remark: another data set of the same source

Row | Kd | Variant
18 | 909 µM | chain 2 F60A

Variants of: B2
Assay: ITC; parent: 530 nM

Row | Kd | Variant
19 | 3.2 µM | chain 2 R47E
20 | 46 µM | chain 2 F60A

Variants of: B3
Assay: ITC; parent: 3.7e+03 nM

Row | Kd | Variant
21 | 262 µM | chain 2 R47E
